Experimental data published in patent US20120021993A1 (AJOU UNIVERSITY INDUSTRY ACADEMIC COOPERATION FOUNDATION, published 2012).

What was measured:
[1] = molecular target: T1, human-derived cell death receptor 4, extracellular domain (amino acid residues 1-216), 6xHis tag (human, UniProt O00220 24-239); assay: ELISA, coated target, single binder concentration not given, A405
T1 construct: extracellular domain; Expressed in E. coli; biotinylated for sorting and flow cytometry; residues 1-216; also called DR4; TRAIL-receptor 1
Protocol: (§1) In order to measure the affinity and cross reactivity of the anti-DR4, -DR5 and -TNFα protein scaffold variants based on the Kringle domain structure to the target molecules, an enzyme-linked immunosorbent assay (ELISA) was performed. The target molecules DR4, DR5, TNFα and DcR1, DcR2 were attached to a 96 well EIA/RIA plate (COSTARCorning In., USA) by its reaction at 37° C. for 1 hour, and washed three times with 0.1% PBST (0.1% Tween20, pH 7.4, 137 mM NaCl, 10 mM Phosphate, 2.7 mM KCl, SIGMA-ALDRICH Co., USA) for 10 minutes. The target molecules were attached for 1 hour to a 96 well EIA/RIA plate in 1% PBSB (1% BSA, pH 7.4, 137 mM NaCl, 10 mM Phosphate, 2.7 mM KCl, SIGMA-ALDRICH Co., USA), and then washed three times with 0.1% PBST (0.1% Tween 20, pH 7.4, 137 mM NaCl, 10 mM Phosphate, 2.7 mM KCl, SIGMA-ALDRICH Co., USA) for 10 minutes. Then, the anti-DR4, -DR5 and -TNFα Kringle domain variants were bound, and washed three times with 0.1% PBST for 10 minutes. The anti-DR4, -DR5 and -TNFα Kringle domain variants were primarily bound to mouse-derived anti-c-myc 9e10 mAb (Ig Therapy, Korea), and secondarily bound to alkaline phosphatase (AP)-conjugated anti-mouse mAb (Sigma). Each of the Kringle domain variants was reacted with […] (pNPP, Sigma-aldrich Co., USA) and quantified at an absorbance of 405 nm.

[2] = molecular target: T2, TNFα, extracellular domain (amino acid residue 1-157), 6xHis tag (human, UniProt P01375 57-233); assay: ELISA, coated target, A405
T2 construct: extracellular domain; Expressed in E. coli; The printed residues 1-157 seem to count on the soluble form, not on the precursor; also called human TNFα; tumor necrosis factor alpha
T2 sequence (P01375 other isoform, or with tags, fused parts or gaps limits assumed): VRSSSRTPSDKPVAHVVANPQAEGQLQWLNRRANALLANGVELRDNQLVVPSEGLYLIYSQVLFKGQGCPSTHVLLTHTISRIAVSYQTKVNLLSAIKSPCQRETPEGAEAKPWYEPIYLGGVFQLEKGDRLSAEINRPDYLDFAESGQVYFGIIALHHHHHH
Protocol: as §1

cell surface DR4 = cell surface DR4 (human, UniProt O00220 24-468); assay: cell-based or functional assay
[3] = molecular target: T1, human-derived cell death receptor 4, …; assay: affinity ELISA, target coated on the plate
Protocol: as §1
(§2) In order to analyze the affinities of the Fc-fused anti-DR4, -DR5 and -TNFα Kringle domains to target molecules, the affinities of the Fc-fused anti-DR4, -DR5 and -TNFα Kringle domains to the target molecules were analyzed using ELISA, as described in Example 8.

DcR2 [4] = molecular target: T3, DcR2 (UniProt Q9UBN6 56-211, limits assumed); assay: yeast display, flow cytometry MFI [panel KD548]
T3 sequence (looked up): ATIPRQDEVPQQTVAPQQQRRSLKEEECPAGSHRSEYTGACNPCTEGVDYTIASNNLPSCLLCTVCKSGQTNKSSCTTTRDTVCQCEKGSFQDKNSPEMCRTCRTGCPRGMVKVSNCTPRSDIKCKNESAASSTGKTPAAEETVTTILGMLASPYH

DcR1 [5] = molecular target: T4, DcR1 (UniProt O14798 26-221, limits assumed); assay: yeast display, flow cytometry MFI [panel KD548]
T4 sequence (looked up): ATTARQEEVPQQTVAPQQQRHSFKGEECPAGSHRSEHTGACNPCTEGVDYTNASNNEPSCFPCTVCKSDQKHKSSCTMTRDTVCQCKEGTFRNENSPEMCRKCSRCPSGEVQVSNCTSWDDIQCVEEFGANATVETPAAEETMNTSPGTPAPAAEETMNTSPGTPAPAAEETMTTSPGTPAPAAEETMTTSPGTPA

DcR2 [6] = molecular target: T3, DcR2; assay: yeast display, flow cytometry MFI [panel KD413]
DcR1 [7] = molecular target: T4, DcR1; assay: yeast display, flow cytometry MFI [panel KD413]
[8] = molecular target: T1, human-derived cell death receptor 4, …; assay: ELISA, homo-dimer against monomer
[9] = molecular target: T1, human-derived cell death receptor 4, …; assay: ELISA, target coated on the plate
cell surface DR5 = cell surface DR5 (human, UniProt O14763 56-440); assay: cell-based or functional assay
[10] = molecular target: T5, human-derived cell death receptor 5, extracellular domain (amino acid residues 1-130), 6xHis tag (human, UniProt O14763 56-210); assay: affinity ELISA, target coated on the plate
T5 construct: extracellular domain; Expressed in E. coli; biotinylated for sorting and flow cytometry; also called DR5; TRAIL-receptor 2
Protocol: as §1, §2

[11] = molecular target: T5, human-derived cell death receptor 5, …; assay: ELISA, homo-dimer against monomer
[12] = molecular target: T5, human-derived cell death receptor 5, …; assay: ELISA, target coated on the plate
[13] = molecular target: T1, human-derived cell death receptor 4, …; assay: ELISA, coated target, A405

B1: KDT02 (designed binder)
chain: CAQDGGPGYDGDKHGTHGGHECQDWTKDGPHIHGFRDQFRDEDQHGKNYCRNPDSQHGPWCFTNEDEHRNELCHEPRC
notes: Soluble monomer from Pichia pastoris; also called KRT02; not shown: C-terminal myc tag-6xHis tag of pPICZaA
With B1 the binding result [1] was “no binding” and the “EC50 (read off the curve)” value [2] was about 2000 nM.

B2: KD413-Fc (Fc fusion)
chain: CAKAEGTGYDGHEHKTHKGIRCQNWYKSKPHYHGHQFRDGDKIKNKKNYCRNPDPRAGPWCFTHGNRNRYELCNQPRC
notes: Disulfide-linked dimer from Pichia pastoris; also called Fc-fused anti-DR4 Kringle domain KD413; not shown: Fc domain region from a hinge of human immunoglobulin G1
For B2, the “EC50 (a concentration of protein causing a 50% cell death), Jurkat, MTT assay” value (cell surface DR4) was 60 nM and the affinity [3] was 60 nM.

B3: L1234 (KD548) (designed binder)
chain: CHQTQGPKYDGNKDKTHKGHKCQSWTKNRPHHHGNKIENEDENRFQKNYCRNPDRELRPWCFTTDPNKRWELCDIPRC
notes: also called KD548L1234
B3: no binding (DcR2 [4]); no binding (DcR1 [5]).

B4: L1234 (KD413) (designed binder)
chain: CAKAEGTGYDGHEHKTHKGIRCQNWYKSKPHYHGHQFRDGDKIKNKKNYCRNPDRELRPWCFTTDPNKRWELCDIPRC
notes: also called KD413L1234
B4: no binding (DcR2 [6]); no binding (DcR1 [7]).

B5: anti-DR4 KD415 homo-dimer (designed binder)
chain: CTRSKGDEYDGHKHKTNRGLRCQHWPGTKPHFHGDKIKDRHGFRLKKNYCRNPDPQDQPWCFTNRHQHKNELCNQPRCGGGGSGGGGSGGGGSGGGGSCTRSKGDEYDGHKHKTNRGLRCQHWPGTKPHFHGDKIKDRHGFRLKKNYCRNPDPQDQPWCFTNRHQHKNELCNQPRC
For B5, the “fold increase of affinity against the monomer” value (“fold increase of affinity” below) [8] was about 10 fold and the affinity value [9] was 87 nM.

B6: KDT01 (designed binder)
chain: CYEDKGPQYDGDEYGTHKGHRCQNWDENRPHPHGIGHQHKHQVKDGKNYCRNPDDETEPWCFTHKDKYGHELCNRPRC
notes: Soluble monomer from Pichia pastoris; also called KRT01; not shown: C-terminal myc tag-6xHis tag of pPICZaA
With B6 the binding result [1] was “no binding” and the “EC50 (read off the curve)” value [2] was about 2000 nM.

B7: anti-DR4 KD413 homo-dimer (designed binder)
chain: CAKAEGTGYDGHEHKTHKGIRCQNWYKSKPHYHGHQFRDGDKIKNKKNYCRNPDPRAGPWCFTHGNRNRYELCNQPRCGGGGSGGGGSGGGGSGGGGSCAKAEGTGYDGHEHKTHKGIRCQNWYKSKPHYHGHQFRDGDKIKNKKNYCRNPDPRAGPWCFTHGNRNRYELCNQPRC
B7 was tested, and the “fold increase of affinity” value [8] was about 10 fold and the affinity value [9] was 43 nM.

B8: KD506-Fc (Fc fusion)
chain: CPEDRGHEYDGDGDKTNRGHGCQYWDQNKPHHHGHRDKDKFKHRIKKNYCRNPDYETGPWCFTNRYRNKNELCHEPRC
notes: Disulfide-linked dimer from Pichia pastoris; also called Fc-fused anti-DR5 Kringle domain KD506; not shown: Fc domain region from a hinge of human immunoglobulin G1
In the case of B8, the “EC50 (a concentration of protein causing a 50% cell death), HL60, MTT assay” value (cell surface DR5) is reported as 230 nM, the “EC50 (a concentration of protein causing a 50% cell death), Jurkat, MTT assay” value (cell surface DR5) is reported as 80 nM and the affinity [10] is reported as 43 nM.

B9: KD413L56 (designed binder)
chain: CMHCSGENYDGKISKTMSGLECQAWDSQSPHAHGYIPSKFPNKNLKKNYCRNPDPRAGPWCFTHGNRNRYELCDIPRC
B9: no binding (DcR2 [6]); no binding (DcR1 [7]).

B10: L567 (KD548) (designed binder)
chain: CMHCSGENYDGKISKTMSGLECQAWDSQSPHAHGYIPSKFPNKNLKKNYCRNPDNKHEPWCFTHGHRDKHELCHEPRC
notes: also called KD548L567; not shown: Aga2p display anchor, linker and c-myc tag of the pCTCON yeast display vector
B10: no binding (DcR2 [4]); no binding (DcR1 [5]).

B11: L567 (KD413) (designed binder)
chain: CMHCSGENYDGKISKTMSGLECQAWDSQSPHAHGYIPSKFPNKNLKKNYCRNPDPRAGPWCFTHGNRNRYELCNQPRC
notes: also called KD413L567
B11: no binding (DcR2 [6]); no binding (DcR1 [7]).

B12: L5 (KD413) (designed binder)
chain: CMHCSGENYDGKISKTMSGLECQAWDSQSPHAHGYIPSKFPNKNLKKNYCRNPDPRAGPWCFTTDPNKRWELCDIPRC
notes: also called KD413L5
B12: no binding (DcR2 [6]); no binding (DcR1 [7]).

B13: KD548L56 (designed binder)
chain: CMHCSGENYDGKISKTMSGLECQAWDSQSPHAHGYIPSKFPNKNLKKNYCRNPDNKHEPWCFTHGHRDKHELCDIPRC
B13: no binding (DcR2 [4]); no binding (DcR1 [5]).

B14: KD415-Fc (Fc fusion)
chain: CTRSKGDEYDGHKHKTNRGLRCQHWPGTKPHFHGDKIKDRHGFRLKKNYCRNPDPQDQPWCFTNRHQHKNELCNQPRC
notes: Disulfide-linked dimer from Pichia pastoris; also called Fc-fused anti-DR4 Kringle domain KD415; not shown: Fc domain region from a hinge of human immunoglobulin G1
With B14 the “EC50 (a concentration of protein causing a 50% cell death), HL60, MTT assay” value (cell surface DR4) was 60 nM, the “EC50 (a concentration of protein causing a 50% cell death), Jurkat, MTT assay” value (cell surface DR4) was 80 nM and the affinity [3] was 53 nM.

B15: KD548-Fc (Fc fusion)
chain: CHQTQGPKYDGNKDKTHKGHKCQSWTKNRPHHHGNKIENEDENRFQKNYCRNPDNKHEPWCFTHGHRDKHELCHEPRC
notes: Disulfide-linked dimer from Pichia pastoris; also called Fc-fused anti-DR5 Kringle domain KD548; not shown: Fc domain region from a hinge of human immunoglobulin G1
B15 was tested, and the “EC50 (a concentration of protein causing a 50% cell death), HL60, MTT assay” value (cell surface DR5) was 220 nM and the affinity [10] was 58 nM.

B16: anti-DR5 KD548 homo-dimer (designed binder)
chain: CHQTQGPKYDGNKDKTHKGHKCQSWTKNRPHHHGNKIENEDENRFQKNYCRNPDNKHEPWCFTHGHRDKHELCHEPRCGGGGSGGGGSGGGGSGGGGSCHQTQGPKYDGNKDKTHKGHKCQSWTKNRPHHHGNKIENEDENRFQKNYCRNPDNKHEPWCFTHGHRDKHELCHEPRC
B16 was tested, and the “fold increase of affinity” value [11] was about 10 fold and the affinity value [12] was 53 nM.

B17: KD413-KD415 hetero-dimer (designed binder, not shown: small tags and cut ends)
chain: CAKAEGTGYDGHEHKTHKGIRCQNWYKSKPHYHGHQFRDGDKIKNKKNYCRNPDPRAGPWCFTHGNRNRYELCNQPRCGGGGSGGGGSGGGGSGGGGSCTRSKGDEYDGHKHKTNRGLRCQHWPGTKPHFHGDKIKDRHGFRLKKNYCRNPDPQDQPWCFTNRHQHKNELCNQPRC
With B17 the “EC50 (read off the curve)” value [13] was about 30 nM.

B18: anti-DR5 KD506 homo-dimer (designed binder)
chain: CPEDRGHEYDGDGDKTNRGHGCQYWDQNKPHHHGHRDKDKFKHRIKKNYCRNPDYETGPWCFTNRYRNKNELCHEPRCGGGGSGGGGSGGGGSGGGGSCPEDRGHEYDGDGDKTNRGHGCQYWDQNKPHHHGHRDKDKFKHRIKKNYCRNPDYETGPWCFTNRYRNKNELCHEPRC
B18 was tested, and the “fold increase of affinity” value [11] was about 10 fold and the affinity value [12] was 31 nM.
